Measurements from patent US20190153113A1, “CD39 VASCULAR ISOFORM TARGETING AGENTS” (INNATE PHARMA, priority 2015, published 2019).
One block for each molecule: values may come before it.

What was measured:
CD39 = target: T1, CD39 (Homo sapiens, UniProt P49961); test: Inhibition of CD39 enzymatic activity in Ramos cells, AMP production by Maldi TOF mass spectrometry; type: cell-based; settings: Ramos cells, ARL at 100 nM, Example 7
T1 construct: cells that endogenously express CD39 at their surface, e.g. regulatory T (TReg) cells, B cells, cancer cells, lymphoma cells (e.g. Ramos cells); endogenous in cells; host or cells: Ramos human lymphoma cells
T1 sequence (P49961 1-510): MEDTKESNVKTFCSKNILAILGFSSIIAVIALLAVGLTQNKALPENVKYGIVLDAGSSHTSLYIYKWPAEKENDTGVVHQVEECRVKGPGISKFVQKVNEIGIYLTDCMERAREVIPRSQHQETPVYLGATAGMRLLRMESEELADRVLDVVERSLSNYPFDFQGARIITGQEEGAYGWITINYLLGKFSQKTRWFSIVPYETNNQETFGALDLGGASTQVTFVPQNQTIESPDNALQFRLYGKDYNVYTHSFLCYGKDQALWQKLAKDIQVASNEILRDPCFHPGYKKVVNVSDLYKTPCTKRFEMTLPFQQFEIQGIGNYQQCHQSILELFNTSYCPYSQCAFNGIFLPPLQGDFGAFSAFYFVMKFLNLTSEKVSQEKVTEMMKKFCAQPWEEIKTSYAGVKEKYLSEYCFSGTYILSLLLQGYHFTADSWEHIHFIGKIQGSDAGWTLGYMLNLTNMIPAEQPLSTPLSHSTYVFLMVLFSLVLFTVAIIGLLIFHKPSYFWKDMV
Description: The inhibition of CD39 enzymatic activity by antibodies was evaluated by Maldi TOF mass spectrometry (production of AMP). This assay represents an assay that is relatively insensitive to down-modulation of CD39 expression. […] After washes, cells were incubated with anti-CD39 antibodies, isotype control, or ARL and 50 μM ATP for 30 minutes at 4° C. in PBS. AMP generated is quantified in supernatants by Maldi TOP.
The inhibition of CD39 enzymatic activity by antibodies was evaluated by Maldi TOF mass spectrometry (production of AMP). Briefly, 10^5 Ramos human lymphoma cells were incubated overnight at 37° C. with anti-CD39 antibodies or a chemical CD39 inhibitor (ARL 100 μM). After washes, cells were incubated with anti-CD39 antibodies, isotype control, or ARL and 50 μM ATP for 30 minutes at 4° C. in PBS. AMP generated is quantified in supernatants by Maldi TOP. Antibodies were used at 33 nM and ARL at […].

[1] = target: T2, Recombinant human CD39-L3 (NTPDase3, ENTPD3) (human, UniProt O75355 44-485, limits assumed); test: ELISA on coated RechuCD39-L3, OD 450 nm [bottom panel Mouse IgG2a I-391]
T2 construct: Coated in ELISA
T2 sequence: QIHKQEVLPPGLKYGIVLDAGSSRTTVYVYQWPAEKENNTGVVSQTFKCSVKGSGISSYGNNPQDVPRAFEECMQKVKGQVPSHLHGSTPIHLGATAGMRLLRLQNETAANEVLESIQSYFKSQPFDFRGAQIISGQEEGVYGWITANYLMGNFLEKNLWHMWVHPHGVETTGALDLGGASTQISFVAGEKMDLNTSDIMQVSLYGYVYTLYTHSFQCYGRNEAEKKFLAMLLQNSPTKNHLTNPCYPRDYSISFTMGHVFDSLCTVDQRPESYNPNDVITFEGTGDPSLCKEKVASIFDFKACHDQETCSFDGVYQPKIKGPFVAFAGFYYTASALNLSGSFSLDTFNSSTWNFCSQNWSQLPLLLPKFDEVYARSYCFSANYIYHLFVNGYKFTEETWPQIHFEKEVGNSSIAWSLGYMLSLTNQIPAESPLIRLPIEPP
Description: (§1) Wells were washed in TBS Tween 20, and further saturated 2H at RT in TBS Blocking buffer. Dose range concentration of primary antibody was incubated in TBS blocking buffer for 2h at RT. Wells were washed in TBS Tween 20. […] Optical density was measured on Enspire at OD=450.

[2] = target: T3, Recombinant human CD39-L4 (NTPDase5, ENTPD5) (human, UniProt O75356 25-428); test: ELISA on coated RechuCD39-L4, OD 450 nm [bottom panel Mouse IgG2a I-391]
T3 construct: Coated in ELISA
T3 sequence: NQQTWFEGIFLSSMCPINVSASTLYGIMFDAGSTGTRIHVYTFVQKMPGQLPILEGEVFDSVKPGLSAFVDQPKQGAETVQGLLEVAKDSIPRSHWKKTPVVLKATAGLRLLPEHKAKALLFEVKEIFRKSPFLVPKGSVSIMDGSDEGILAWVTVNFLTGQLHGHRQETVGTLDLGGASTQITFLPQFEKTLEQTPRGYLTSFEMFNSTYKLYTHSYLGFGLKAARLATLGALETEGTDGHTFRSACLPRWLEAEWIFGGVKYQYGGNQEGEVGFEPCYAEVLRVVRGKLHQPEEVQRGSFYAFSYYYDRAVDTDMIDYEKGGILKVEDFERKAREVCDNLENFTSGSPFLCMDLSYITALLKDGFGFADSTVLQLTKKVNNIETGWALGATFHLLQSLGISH
Description: as §1

[3] = target: T4, Recombinant human CD39 protein (vascular isoform), soluble (human, UniProt P49961 38-478); test: ELISA on coated recombinant human CD39 (RechuCD39), HRP secondary antibody, TMB, OD 450 nm [bottom panel Mouse IgG2a I-391]
T4 construct: they are written under this molecule; also called Rec-huCD39; huCD39 protein; not shown: M2 tag added in the C-terminal part
T4 sequence: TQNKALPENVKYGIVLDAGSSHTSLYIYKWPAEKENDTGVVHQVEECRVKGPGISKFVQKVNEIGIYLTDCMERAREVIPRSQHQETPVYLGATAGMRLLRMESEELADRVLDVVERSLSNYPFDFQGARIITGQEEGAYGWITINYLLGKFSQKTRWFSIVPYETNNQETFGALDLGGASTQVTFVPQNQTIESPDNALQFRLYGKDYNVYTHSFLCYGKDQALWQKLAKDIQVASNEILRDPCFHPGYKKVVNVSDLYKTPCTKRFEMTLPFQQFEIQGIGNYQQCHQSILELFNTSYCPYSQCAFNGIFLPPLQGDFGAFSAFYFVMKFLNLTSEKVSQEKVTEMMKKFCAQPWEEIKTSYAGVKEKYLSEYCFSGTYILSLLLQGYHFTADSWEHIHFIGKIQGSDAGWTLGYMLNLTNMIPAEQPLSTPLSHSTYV
Description: as §1

[4] = target: T5, Recombinant human CD39-L2 (NTPDase6, ENTPD6) (human, UniProt O75354 61-484, limits assumed); test: ELISA on coated RechuCD39-L2, OD 450 nm [bottom panel Mouse IgG2a I-391]
T5 construct: Coated in ELISA
T5 sequence: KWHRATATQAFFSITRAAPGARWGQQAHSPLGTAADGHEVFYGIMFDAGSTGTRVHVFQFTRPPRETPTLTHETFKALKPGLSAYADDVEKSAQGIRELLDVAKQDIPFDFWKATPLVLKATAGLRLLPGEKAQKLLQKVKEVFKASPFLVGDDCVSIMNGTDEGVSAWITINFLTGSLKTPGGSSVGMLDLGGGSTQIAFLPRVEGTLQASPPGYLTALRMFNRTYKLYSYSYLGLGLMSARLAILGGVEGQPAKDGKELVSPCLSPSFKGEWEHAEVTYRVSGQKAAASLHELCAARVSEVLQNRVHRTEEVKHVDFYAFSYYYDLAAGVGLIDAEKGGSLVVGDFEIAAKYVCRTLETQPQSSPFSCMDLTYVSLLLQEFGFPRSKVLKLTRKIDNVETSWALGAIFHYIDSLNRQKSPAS
Description: as §1

[5] = target: T6, Human CD39 (vascular CD39, NTPDase1, ENTPD1) expressed at the cell surface (human, UniProt P49961 1-510); test: flow cytometry on Ramos cells, antibody at 10 µg/ml, GAM-PE
T6 construct: also called huCD39; HEK-huCD39
T6 sequence: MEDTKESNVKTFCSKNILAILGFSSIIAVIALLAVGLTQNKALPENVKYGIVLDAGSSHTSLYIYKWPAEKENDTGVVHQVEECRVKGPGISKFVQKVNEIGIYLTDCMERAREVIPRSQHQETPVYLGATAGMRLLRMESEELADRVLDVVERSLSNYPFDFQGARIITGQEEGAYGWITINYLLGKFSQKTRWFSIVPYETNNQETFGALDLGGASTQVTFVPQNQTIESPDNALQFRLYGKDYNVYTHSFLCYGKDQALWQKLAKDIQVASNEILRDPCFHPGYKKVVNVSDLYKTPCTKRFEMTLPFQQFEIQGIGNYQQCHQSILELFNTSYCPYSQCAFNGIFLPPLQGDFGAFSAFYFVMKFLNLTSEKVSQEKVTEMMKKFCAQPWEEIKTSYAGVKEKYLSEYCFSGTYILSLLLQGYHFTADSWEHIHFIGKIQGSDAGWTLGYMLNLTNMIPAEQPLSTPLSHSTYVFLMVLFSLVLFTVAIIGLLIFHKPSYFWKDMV

[6] = target: T2, Recombinant human CD39-L3 (NTPDase3, …); test: ELISA, recombinant isoform coated at 500 ng/ml or 1 µg/ml
Description: as §1

[7] = target: T3, Recombinant human CD39-L4 (NTPDase5, …); test: as above
Description: as §1

[8] = target: T5, Recombinant human CD39-L2 (NTPDase6, …); test: as above
Description: as §1

Molecule: CCN(CC)c1ncnc2c1ncn2[C@@H]1O[C@H](COP(=O)(O)OP(=O)(O)C(Br)(Br)P(=O)(O)O)[C@@H](O)[C@H]1O [ARL, reference compound]
inhibition of AMP generated (CD39): strong inhibition of AMP generated, but resulted in significantly less CD39 blockade than I-391

binding result [1]: no binding (tested: 50 ug/ml)
binding result [2]: no binding (tested: 50 ug/ml)
EC50 (read off the curve) [3]: ~0.08 µg/mL
binding result [4]: no binding (tested: 50 ug/ml)
B1: Antibody I-391 with Fc domain of mouse IgG2a isotype (MOGA) (antibody, V domains shown)
VH: QIQLVQSGPELKKPGETVKISCKASGYTFRNYGMNWVKQAPGKGLKWMGWINTYTGEPTYADDFKGRFAFSLATSASTAYLQISNLKNEDTATYFCARKAYYGSNYYFDYWGQGTTLTVSS
VL: DIVMTQSHKFMSTSVGDRVSITCKASQDVSTAVAWYQQKPGQSPKLLIYSASYRYTGVPDRFTGSGSGTDFTFTISTVQAEDLAVYYCQQHYTTPPYTFGGGTKLEIK

binding result [5]: binds
binding result [6]: no binding
binding result [7]: no binding
binding result [8]: no binding
B2: Antibody I-392, recombinant chimeric human IgG1 with heavy chain N297Q mutation (antibody, V domains shown)
VH: QIQLVQSGPEVKKPRETVKISCKASGYTFTHYGMNWVKQAPGKGLKWMGWINTYTGEPTYADDFKGRFAFSLEASASTAYLQINNLKNEDTATYFCARRRYEGNYVFYYFDYWGQGTTLTVSS
VL: DIQMTQSPASLSASVGETVTITCRASENIYSYFSWYQQKQGKSPQLLVYTAKTLAEGVPSRFSGSGSGTQFSLKINSLQPEDFGSYYCQHHYVTPYTFGGGTKLEIK
